The values below come from patent US20250066499A1 (SUNSHINE GUOJIAN PHARMACEUTICAL SHANGHAI, published 2025).

What all share (assay): ELISA, high plateau value (OD 450 nm)
(In general: ELISA stands for enzyme-linked immunosorbent assay.)

For one test, the target named is T1, CD73-ND-L133A (human, UniProt P21589 27-317).
T1 construct: Alanine mutant of CD73-ND
T1 sequence: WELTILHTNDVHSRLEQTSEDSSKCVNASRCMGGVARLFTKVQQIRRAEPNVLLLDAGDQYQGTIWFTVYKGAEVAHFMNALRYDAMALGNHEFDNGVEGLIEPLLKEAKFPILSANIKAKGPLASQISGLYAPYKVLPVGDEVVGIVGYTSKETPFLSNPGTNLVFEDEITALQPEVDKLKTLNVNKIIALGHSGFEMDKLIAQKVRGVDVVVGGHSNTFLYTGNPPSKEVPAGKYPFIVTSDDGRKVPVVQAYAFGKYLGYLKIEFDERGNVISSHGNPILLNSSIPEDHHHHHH
How it is done: (§1) The ELISA plates were coated with SA protein diluted to 1.5 μg/mL in coating buffer (50 mM carbonate coating buffer, pH 9.6) and incubated overnight at 4° C. The supernatant was discarded, and the plates were washed three times with PBST. Then, 5% skimmed milk powder prepared with PBS was added for blocking and the plates were incubated for 2 h at 37° C. After washing the plates once with PBST, CD73-biotin protein (prepared by biotinylating CD73-His protein according to the EZ-Link NHS-Biotin Reagent instructions) was diluted to 0.5 μg/mL and added at 100 μL/well for incubation at room temperature for 1 h. The plates were washed three times with PBST, and the prepared murine-derived monoclonal antibodies against human CD73 were serially diluted with 1% BSA buffer prepared with PBST and added to the ELISA plates at 100 μl/well. The plates were incubated at 37° C. for 1 h. After washing the plates three times with PBST, HRP-labeled goat anti-mouse IgG secondary antibody was added and the plates were incubated for 30 min at 37° C. After washing the plates three times with PBST, the residual droplets were patted dry on absorbent paper as much as possible. Then, 100 μl of TMB color developing solution was added to each well, and the plates were incubated in the dark at room temperature for 5 min for color development. Subsequently, 50 μl of 2M H₂SO₄ stop solution was added to each well to terminate the substrate reaction. The OD values were read at 450 nm using a multimode microplate reader to analyze the binding ability of the tested antibodies to the target antigen human CD73-His.
(§2) Referring to the experimental method in Example 3, the affinity of 48A11-HuV33 for various mutant proteins of CD73-ND was determined. The SA protein was diluted to 1 μg/mL for coating the ELISA plates, and the biotinylated CD73 protein (CD73-biotin) was used at a concentration of 0.1 μg/mL.

For another test, the target named is T2, CD73-ND-Y135A (human, UniProt P21589 27-317).
T2 construct: Alanine mutant of CD73-ND
T2 sequence: T1 sequence with A133L, Y135A
How it is done: as §1, §2

In a further test the target is T3, CD73-ND-his (human, UniProt P21589 27-317).
T3 construct: Biotinylated and captured on streptavidin in the ELISA
T3 sequence: T1 sequence with A133L
As to the method:
as §1, §2

A further test addresses T4, CD73-ND-P139A (human, UniProt P21589 27-317).
T4 construct: Alanine mutant of CD73-ND
T4 sequence: T1 sequence with A133L, P139A
As to the method: as §1, §2

The next test has as its target T5, CD73-ND-D142A (human, UniProt P21589 27-317).
T5 construct: Alanine mutant of CD73-ND
T5 sequence: T1 sequence with A133L, D142A
As to the method: as §1, §2

For another test, the target named is T6, CD73-ND-L184A (human, UniProt P21589 27-317).
T6 construct: Alanine mutant of CD73-ND
T6 sequence: T1 sequence with A133L, L184A
As to the method: as §1, §2

Changes are numbered by the printed parent chain.

B1: 48A11-HuV33 (antibody, human IgG4, V domains shown)
VH: QVQLVQSGAEVKKPGASVKVSCKASGYTFTSYWMHWVRQAPGQGLEWIGEINPSIGRTNYNEKFKSRVTLTRDTSTSTAYMELSSLRSEDTAVYYCARRVYGTMDYWGQGTLVTVSS
VL: DIQMTQSPSSLSASVGDRVTITCKASQDINSYLSWFQQKPGKSPKLLIYRANIWVDGVPSRFSGSGSGQDYTFTISSLQPEDIATYYCLQYDELYTFGQGTKVEIK
notes: Humanized
As to B1, the Top is 0.922 with CD73-ND-L133A; 1.96 with CD73-ND-Y135A; 2 in the test with CD73-ND-his; 0.871 with CD73-ND-P139A; 1.84 in the test with CD73-ND-D142A; 1.7 with CD73-ND-L184A.
